Measurements: patent publication US20150307599A1 (GARVAN INSTITUTE OF MEDICAL RESEARCH, published 2015)
Where no end group is shown, it is not given here.

Legend:
Assay in all cases: indirect ELISA, peptide coated on the plate (20 µg/mL), MAb 5E12-B7 at 1 µg/mL, O.D. 450 nm
1p28-ALRHYINLIT = target: T1, 1p28-ALRHYINLIT
T1 construct: NPY residues 23-32; also called Peptide 1p28 (10 mer shifting across NPY)
T1 peptide: ALRHYINLIT-NH2
Description: (§1) ELISA was used to map the reactivity of purified MAb 5E12-B7 against the peptides described in Table 3. Briefly, ELISA microwell plates (96-well Maxisorp, Nunc) were coated overnight at 4° C. with 50 μL of mapping peptides (Table 3) diluted to 20 μg/mL in carbonate coating buffer (CCB). Between each of the following steps, microwell plates were washed three times with PBST using a plate washer (BioTek). Coated wells were blocked with 200 μL PBS containing 5% w/v skim milk (Diploma). Blocked wells were incubated for 1 hr with 50 μL of MAb 5E12-B7 diluted to 1 μg/mL in skim milk/PBST. Wells were then incubated for 1 hr with 50 μL Peroxidase-conjugated AffiniPure F(ab)2 fragment goat anti-mouse secondary antibody (Jackson) diluted 1:5000 in skim milk/PBST. Ig binding was detected by incubation of wells with 50 μL TMB substrate (Becton Dickinson). Substrate reaction was stopped after 15 min with 50 μL 1M H₂SO₄ and O.D. 450 nm was measured.

1p30-RHYINLITRQ = target: T2, 1p30-RHYINLITRQ
T2 construct: NPY residues 25-34; also called Peptide 1p30 (10 mer shifting across NPY)
T2 peptide: RHYINLITRQ-NH2
Description: as §1

1p23-ARYYSALRHY = target: T3, 1p23-ARYYSALRHY
T3 construct: NPY residues 18-27; also called Peptide 1p23 (10 mer shifting across NPY)
T3 peptide: ARYYSALRHY-NH2
Description: as §1

1p21-DMARYYSALR = target: T4, 1p21-DMARYYSALR
T4 construct: NPY residues 16-25; also called Peptide 1p21 (10 mer shifting across NPY)
T4 peptide: DMARYYSALR-NH2
Description: as §1

1p22-MARYYSALRH = target: T5, 1p22-MARYYSALRH
T5 construct: NPY residues 17-26; also called Peptide 1p22 (10 mer shifting across NPY)
T5 peptide: MARYYSALRH-NH2
Description: as §1

1p24-RYYSALRHYI = target: T6, 1p24-RYYSALRHYI
T6 construct: NPY residues 19-28; also called Peptide 1p24 (10 mer shifting across NPY)
T6 peptide: RYYSALRHYI-NH2
Description: as §1

1p20-EDMARYYSAL = target: T7, 1p20-EDMARYYSAL
T7 construct: NPY residues 15-24; also called Peptide 1p20 (10 mer shifting across NPY)
T7 peptide: EDMARYYSAL-NH2
Description: as §1

1p19-AEDMARYYSA = target: T8, 1p19-AEDMARYYSA
T8 construct: also called Peptide 1p19 (10 mer shifting across NPY)
T8 peptide: AEDMARYYSA-NH2
Description: as §1

1p27-SALRHYINLI = target: T9, 1p27-SALRHYINLI
T9 construct: NPY residues 22-31; also called Peptide 1p27 (10 mer shifting across NPY)
T9 peptide: SALRHYINLI-NH2
Description: as §1

1p29-LRHYINLITR = target: T10, 1p29-LRHYINLITR
T10 construct: NPY residues 24-33; also called Peptide 1p29 (10 mer shifting across NPY)
T10 peptide: LRHYINLITR-NH2
Description: as §1

Measured: binding result

B1: MAb 5E12-B7 (antibody, V domains shown)
VH: QVQLQHPGTEVVKPGASVKLSCKASGYTFTNYWMHWVKQRPGQGLEWIGNIDPSNGGTNYNEKFKSKATLTVDKSSSTAYMQLSSLTSEDSAVYYCASFAYWGQGTLVTVSA
VL: DIQMTQSPASLSASVGETVTITCRASGNIHNYLAWYQQKQGKSPQLLVYNAKTLADGVPSRFSGSGSGTQYSLKISSLRPEDFGSYYCQHFWSPPFTFGSGTKLEIK
notes: Biotinylated for the Biacore and Octet assays; also called PYY/NPY antibody (5E12); anti-NPY/PYY antibody 5E12
no binding (tested: 1 µg/mL): all assays above
